Drawing on the RNAGym collection of RNA variant scans (doi:10.7554/elife.90254), this text covers self-cleavage for 167 variants.

B1: LINE1-full (parent)
chain: UACGUAGGUGGUUUUCCCCUGAUAGUGCUAAGGGGGCCUGGAAGUUUGGACUGGGCAGAGCUCAACACAGCGUGGCAAAGUGGCUGUGGCUAGACUGCCUCUCUGGAUUCCUCGUCACUCAGCAGGGCAUCUCUGAGAGAAAUGCC

The data set covers variants of B1. Kind of data set: self-cleavage, relative activity (ratio to wild type); higher = more cleavage; in vitro, sequencing; the parent is a self-cleaving ribozyme.
As to G7C U85C, the self-cleavage is 1.26.

As for U9C U20A, the self-cleavage was 0.95.

U9A C113A: the self-cleavage came out at 0.39.

As for U9A C113U, the self-cleavage amounted to 0.97.

As to U9C G97A, the self-cleavage is 0.33.

On to G8C U143A, for which the self-cleavage is 2.06.

On to U9G C56U, for which the self-cleavage worked out at 0.24.

With U9C A50C, the self-cleavage turned out to be 1.25.

As to U9C G125A, the self-cleavage turned out to be 1.8.

G8A A121G: the self-cleavage came to 0.54.

In the case of G8A A121C, the self-cleavage was found to be 0.46.

Take G7U U87C: the self-cleavage was 0.18.

In the case of G7U U87A, the self-cleavage is 0.12.

Regarding G7U G70A, the self-cleavage was found to be 0.2.

Regarding U9C U134A, the self-cleavage worked out at 1.19.

On to U9C U134G, for which the self-cleavage was found to be 0.63.

As for G8A A141G, the self-cleavage was determined as 1.1.

With G7A U143C, the self-cleavage was found to be 1.29.

Take G8U A59U: the self-cleavage was 0.63.

On to U9A A42C, for which the self-cleavage came to 0.56.

In the case of U9A A42U, the self-cleavage is 1.09.

With U9A A42G, the self-cleavage was 1.14.

Turning to G8A U132C, the self-cleavage amounted to 1.58.

Consider U9A G80A, for which the self-cleavage was found to be 1.92.

As to U9G U130A, the self-cleavage worked out at 0.78.

With U9G U130C, the self-cleavage was 1.79.

For the variant G7U C123U, the self-cleavage came to 1.39.

Take U9A G127U: the self-cleavage is 1.92.

Regarding U9A U112A, the self-cleavage is 0.82.

For the variant U9A U112C, the self-cleavage is 1.32.

On to U9A A24U, for which the self-cleavage turned out to be 1.01.

U9C A77G: the self-cleavage came to 1.92.

U9C G21A: the self-cleavage stood at 1.32.

As to U9A G89A, the self-cleavage was determined as 0.1.

On to G7U U13C, for which the self-cleavage stood at 0.99.

On to G7U U13A, for which the self-cleavage was 0.71.

Take U9C G122A: the self-cleavage came out at 1.43.

For U9G U52G, the self-cleavage was 1.05.

U9A C145U: the self-cleavage came to 1.64.

For the variant U9C A107U, the self-cleavage came to 1.59.

With U9C A107G, the self-cleavage was determined as 1.61.

As to U9C A136U, the self-cleavage came to 1.3.

In the case of U9C A136G, the self-cleavage was found to be 1.75.

For U9A G93A, the self-cleavage is 0.06.

With U9A G93U, the self-cleavage came out at 0.3.

For the variant G8A U14C, the self-cleavage was determined as 1.32.

As for U9G U81C, the self-cleavage was 0.83.

Consider U9G A43G, for which the self-cleavage worked out at 0.85.

As to U9C A43G, the self-cleavage turned out to be 1.12.

U9A G114C: the self-cleavage was 0.61.

As to G7U A124G, the self-cleavage came to 1.19.

As for G8A U143C, the self-cleavage came to 1.45.

Turning to G8C A142G, the self-cleavage was 1.21.

For U9A A142G, the self-cleavage came to 1.13.

Turning to U9G U47A, the self-cleavage worked out at 0.99.

Turning to U9A U39A, the self-cleavage worked out at 1.16.

For the variant U9A U39C, the self-cleavage turned out to be 0.25.

On to U9C U26C, for which the self-cleavage worked out at 1.35.

Turning to G8U U62A, the self-cleavage came out at 0.12.

Turning to U9G A141U, the self-cleavage was 0.52.

Consider U9G A141G, for which the self-cleavage turned out to be 1.51.

With U9C G82U, the self-cleavage is 1.34.

For the variant U9A G72A, the self-cleavage turned out to be 0.81.

For the variant U9C G35C, the self-cleavage is 1.43.

For the variant G7U U20C, the self-cleavage was 1.15.

Regarding U9C U112A, the self-cleavage was 1.46.

On to U9C U112C, for which the self-cleavage was found to be 1.45.

In the case of U9A U134C, the self-cleavage was 1.4.

Regarding U9C G126U, the self-cleavage was determined as 1.68.

Take U9C A78G: the self-cleavage was 1.19.

With U9G A140G, the self-cleavage came to 0.

Take G8U U15C: the self-cleavage amounted to 1.62.

Regarding U9A U96A, the self-cleavage worked out at 0.08.

For G7U A142G, the self-cleavage amounted to 1.15.

Consider G8A C131A, for which the self-cleavage was found to be 0.51.

Consider U9A U15A, for which the self-cleavage was determined as 1.07.

As to U9C C76G, the self-cleavage was 2.04.

Consider U9C G34C, for which the self-cleavage was 0.8.

Regarding U9C G34A, the self-cleavage came to 1.05.

U9C G41A: the self-cleavage was found to be 1.06.

For G7C U13C, the self-cleavage was 2.07.

Take U9A A77U: the self-cleavage came out at 0.85.

Take G7A U52A: the self-cleavage turned out to be 0.89.

In the case of G7C U12G, the self-cleavage came to 1.19.

As to U9A U102C, the self-cleavage was found to be 1.03.

Turning to U9C U29A, the self-cleavage worked out at 1.1.

For G8C U39C, the self-cleavage came to 0.91.

Regarding U9A U47C, the self-cleavage is 1.37.

With U9C G93A, the self-cleavage is 0.05.

Turning to U9A C61U, the self-cleavage is 0.02.

On to U9C A67G, for which the self-cleavage worked out at 0.48.

For the variant U9C A67U, the self-cleavage was determined as 0.26.

Take U9G A64C: the self-cleavage came to 0.18.

Turning to U9G A64U, the self-cleavage came to 0.53.

Turning to G7C U102C, the self-cleavage was found to be 0.

U9G A94G: the self-cleavage worked out at 0.22.

Turning to G8A A78G, the self-cleavage was 2.03.

Take G7U U52C: the self-cleavage is 1.1.

Take U9G A124C: the self-cleavage came out at 0.

Take U9A A138G: the self-cleavage stood at 0.87.

As for G7U U47A, the self-cleavage was found to be 1.2.

G8U A50G: the self-cleavage is 1.19.

Regarding U9C U87A, the self-cleavage turned out to be 0.2.

Take U9C U87C: the self-cleavage was 0.42.

U9C U87G: the self-cleavage worked out at 0.69.

As to G7U A65U, the self-cleavage came out at 0.17.

Turning to G7U A65G, the self-cleavage came to 0.13.

U9C A22U: the self-cleavage came out at 0.89.

U9C C28A: the self-cleavage is 1.16.

On to G8A A50G, for which the self-cleavage was 0.85.

For G7U U91A, the self-cleavage came to 1.12.

In the case of U9A U100C, the self-cleavage is 1.18.

In the case of U9C A57G, the self-cleavage amounted to 0.96.

As to G8A U13C, the self-cleavage came out at 1.05.

On to G7C A129U, for which the self-cleavage stood at 1.17.

Take U9G U45A: the self-cleavage is 0.73.

Regarding U9G U45C, the self-cleavage was found to be 0.25.

With U9A A124U, the self-cleavage turned out to be 1.2.

Turning to U9G G60A, the self-cleavage is 0.09.

Turning to U9C A64G, the self-cleavage was found to be 0.45.

With U9G G93C, the self-cleavage stood at 0.11.

For G7C A69G, the self-cleavage worked out at 0.79.

Regarding U9A A31G, the self-cleavage came out at 1.35.

As to G7A U45A, the self-cleavage came to 0.53.

Take U9C G36U: the self-cleavage was 2.08.

G8C A138G: the self-cleavage was determined as 1.44.

In the case of U9C U12G, the self-cleavage was 1.15.

Turning to U9C U12C, the self-cleavage is 1.13.

For U9C U12A, the self-cleavage amounted to 1.51.

U9A G126A: the self-cleavage was 0.82.

As for U9G U108C, the self-cleavage came out at 1.37.

Consider U9A C16U, for which the self-cleavage amounted to 0.45.

As to G8U C37U, the self-cleavage was found to be 1.51.

G8U C37G: the self-cleavage amounted to 1.18.

As for G8C G75A, the self-cleavage was determined as 1.2.

U9G C68U: the self-cleavage was determined as 0.21.

Consider G7U, for which the self-cleavage amounted to 1.35.

Take G7C: the self-cleavage was 1.4.

As for G7U A140G, the self-cleavage stood at 1.33.

For the variant G7A U91C, the self-cleavage was determined as 0.34.

As to G7U G54A, the self-cleavage amounted to 0.94.

Regarding G7U G54C, the self-cleavage came to 0.49.

In the case of U9G A50G, the self-cleavage stood at 0.93.

U9A U26C: the self-cleavage worked out at 1.24.

For U9A U26A, the self-cleavage is 0.7.

With U9C U39A, the self-cleavage was 1.17.

Turning to U9C U39C, the self-cleavage turned out to be 1.14.

U9A A67G: the self-cleavage was determined as 0.58.

In the case of G8U A124U, the self-cleavage is 1.47.

Regarding G7C U73C, the self-cleavage came out at 0.74.

On to U9A A22U, for which the self-cleavage came to 0.89.

G8A G48A: the self-cleavage came out at 0.44.

As for G8U U143A, the self-cleavage stood at 2.02.

Turning to G7U U9C, the self-cleavage was 1.56.

On to U9C U85G, for which the self-cleavage is 0.27.

On to U9C C84A, for which the self-cleavage amounted to 0.26.

As for U9A C51A, the self-cleavage was found to be 1.47.

With U9C U104C, the self-cleavage came out at 1.82.

Take U9G U96A: the self-cleavage came out at 0.

On to G8A C38U, for which the self-cleavage amounted to 1.41.

On to U9A U52A, for which the self-cleavage came out at 0.9.

Turning to U9A U52C, the self-cleavage was determined as 0.74.

Take G7C A140G: the self-cleavage came to 1.37.

Regarding U9A U45C, the self-cleavage amounted to 0.91.

For U9A U23A, the self-cleavage was 0.36.

Regarding U9A A121C, the self-cleavage was found to be 0.46.

Regarding G8A U46A, the self-cleavage is 2.02.
